Reference: publication doi:10.1101/2022.12.09.519731 (bioRxiv, 2022)
Where “and” joins values, the source holds several entries; their conditions need not be identical. Equal values may be shown once. Each block holds one molecule with its values, some of them ahead of it.

How the values were obtained:
[1] = biological target: MalE-MglC (Myxococcus xanthus); test: mass photometry
[2] = biological target: MalE-RomR (Myxococcus xanthus); test: mass photometry
MglA-His6 = biological target: T1, MglA-His6 (Myxococcus xanthus, UniProt Q1DB04 1-195); test: pull-down
T1 sequence: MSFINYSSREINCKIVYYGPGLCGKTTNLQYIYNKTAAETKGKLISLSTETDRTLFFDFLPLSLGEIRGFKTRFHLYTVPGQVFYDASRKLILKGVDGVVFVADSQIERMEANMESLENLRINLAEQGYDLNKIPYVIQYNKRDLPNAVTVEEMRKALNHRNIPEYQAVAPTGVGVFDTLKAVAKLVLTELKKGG

- stoichiometry N [1]: 2
Molecule: MalE-MglC (natural protein)

- stoichiometry N (RomR:MglC (2:2)) [1]: 1
- stoichiometry N (RomR:MglC (3:2)) [1]: 1.5
- stoichiometry N [2]: 3 and 2
Molecule: MalE-RomR (natural protein)

- binding result (MglA-His6): binds
B1: His6-MglB (natural protein, Myxococcus xanthus)
chain: MGTQLVMYEEEFTKINAVCDRLTKDANAKVVFLVDKNGQLISSAGQTQNIDTTSLASLTAGNVAAMGGLAKLIGENEFPNQFHEGAKDSLYMTIVGSRVVLVVIFDNRTSLGLVRLRIKKASDELTKIFESLVKKTDSPGAGSPFAEISDDDIDNLFSE
